US20180072803A1 (MINOMIC INTERNATIONAL, published 2018)

Columns and labels:
[1] = molecular target: T1, recombinant human GPC-1 produced from NS0 cells (human, UniProt P35052 24-530); experiment: Western blot, three-antibody detection
T1 construct: also called GPC-1 NS0; recombinant NS0-produced GPC-1
T1 sequence (looked up): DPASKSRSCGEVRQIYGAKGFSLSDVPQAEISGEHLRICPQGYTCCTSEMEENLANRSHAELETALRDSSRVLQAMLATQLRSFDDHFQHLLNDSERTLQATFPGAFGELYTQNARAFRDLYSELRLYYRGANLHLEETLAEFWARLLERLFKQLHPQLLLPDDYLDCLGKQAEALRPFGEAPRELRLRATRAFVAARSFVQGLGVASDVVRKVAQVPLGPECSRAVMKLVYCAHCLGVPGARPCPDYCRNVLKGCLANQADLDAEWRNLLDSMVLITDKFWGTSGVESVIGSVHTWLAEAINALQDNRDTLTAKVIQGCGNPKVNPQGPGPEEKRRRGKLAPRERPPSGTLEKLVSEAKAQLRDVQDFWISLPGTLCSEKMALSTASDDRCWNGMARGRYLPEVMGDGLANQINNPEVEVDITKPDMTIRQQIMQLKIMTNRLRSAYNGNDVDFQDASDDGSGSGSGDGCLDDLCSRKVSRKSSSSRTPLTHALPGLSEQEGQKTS
Description: As a control, murine MIL-38 was detected by goat anti-mouse secondary antibody followed by a sheep-anti-goat HRP antibody. […] The complex was detected using a sheep-anti-goat HRP antibody. […] The complex was detected using a sheep-anti-mouse HRP antibody.
A control western blot using a three antibody detection method was also performed with murine MIL-38. (FIG. 9C).

[2] = molecular target: T2, MIL-38 antigen (GPC-1) as present in DU-145 and other cell lines (UniProt P35052 24-530); experiment: immunofluorescence assay on DU-145 cells (FIG. 8F)
T2 construct: whole, on cells; In IFA it stood on acetone-fixed cells; in Western blots it stood in membrane protein (MPEK) extracts of the cells; also called GPC-1 antigen
T2 sequence (looked up): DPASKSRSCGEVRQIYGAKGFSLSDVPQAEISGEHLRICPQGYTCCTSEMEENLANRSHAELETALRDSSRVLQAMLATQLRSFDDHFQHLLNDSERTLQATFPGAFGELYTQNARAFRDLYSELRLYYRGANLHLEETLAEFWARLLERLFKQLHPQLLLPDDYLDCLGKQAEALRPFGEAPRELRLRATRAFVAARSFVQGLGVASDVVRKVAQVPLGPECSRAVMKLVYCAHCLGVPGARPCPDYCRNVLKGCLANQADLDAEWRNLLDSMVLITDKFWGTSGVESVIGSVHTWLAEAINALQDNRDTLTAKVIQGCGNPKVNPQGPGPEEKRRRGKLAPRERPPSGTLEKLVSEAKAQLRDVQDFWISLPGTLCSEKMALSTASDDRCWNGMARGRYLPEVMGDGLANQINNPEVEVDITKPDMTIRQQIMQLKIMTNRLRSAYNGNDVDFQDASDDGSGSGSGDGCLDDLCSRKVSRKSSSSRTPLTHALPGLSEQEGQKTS
Description: IFA: Cells were grown on coverslips until 75% confluent and placed in 6 well plates. The cells were washed with PBS followed by fixing with acetone. Cells were washed again with PBS followed by incubation with TBS then blocked with PBS containing 5% skim milk. […] Both antibodies were prepared in PBS containing 1% skim milk followed. Washing with PBS was performed between the primary and secondary antibody incubations. After secondary incubation, cells were washed with PBS containing DAPI and visualised for green fluorescence (MIL-38 positive).
A slide with no primary antibody was used as a negative control.

[3] = molecular target: T2, MIL-38 antigen (GPC-1) as present in …; experiment: Western blot on DU-145 and C3 extracts (FIG. 2B)
[4] = molecular target: T1, recombinant human GPC-1 produced from …; experiment: sandwich ELISA, antibody coated as capture, biotinylated AM-4 as detection (FIG. 6A)
Description: Plates were blocked with PBS-Tween (0.1.%) containing 5% skim milk at 37° C. and washed. Antigen (recombinant human GPC-1 produced from NS0 cells) diluted in Buffer II (20 mM HEPES pH 7.5, 0.5 mM EDTA, 0.5% Triton X-100) with the addition of 150 mM NaCl and incubated overnight at 37° C. […] Absorbance was read 450 nm.

Binder | binding result [1] | binding result [2] | binding result [3] | binding result [4]
Chimeric MIL-38 antibody (Mouse VH-Human CH1-CH3 / Mouse VK-Human CK) (antibody, human IgG1, kappa, Expressed transiently in CHO-3E7 cells and purified on Protein A; also called MIL-38 chimeric antibody) heavy: not shown light: DIQMTQSPASLSASVGETVTITCRASGNVHNYLAWYQQKQGKSPQLLVYTAKTLADGVPSRFSGSGSGTQYSLKINSLQPEDFGTYYCQHFWSNPWTFGGGTKLEIKRTVAAPSVFIFPPSDEQLKSGTASVVCLLNNFYPREAKVQWKVDNALQSGNSQESVTEQDSKDSTYSLSSTLTLSKADYEKHKVYACEVTHQGLSSPVTKSFNRGEC | binds | binds |  | 
AM-4 MIL-38 antibody (AusMAb 4) (antibody, mouse IgG1, kappa, Monoclonal mouse IgG1 kappa; Biotinylated AM-4 was also the detection antibody in the sandwich ELISA; also called monoclonal AM-4 MIL-38) heavy: QIQLVQSGPELKKPGETVKISCKASGYAFTDYSMNWVKQAPGKGLRWMGWINTETGEPTYTDDFKGRFAFSLETSASTAFLQINNLRNEDTATYFCARHYDYGGFPYWGQGTLVTVSAAKTTPPSVYPLAPGSAAQTNSMVTLGCLVKGYFPEPVTVTWNSGSLSSGVHTFPAVLQSDLYTLSSSVTVPSSTWPSETVTCNVAHPASSTKVDKKIVPRDCGCKPCICTVPEVSSVFIFPPKPKDVLTITLTPKVTCVVVDISKDDPEVQFSWFVDDVEVHTAQTQPREEQFNSTFRSVSELPIMHQDWLNGKEFKCRVNSAAFPAPIEKTISKTKGRPKAPQVYTIPPPKEQMAKDKVSLTCMITDFFPEDITVEWQWNGQPAENYKNTQPIMDTDGSYFVYSKLNVQKSNWEAGNTFTCSVLHEGLHNHHTEKSLSHSPGK light: DIQMTQSPASLSASVGETVTITCRASGNVHNYLAWYQQKQGKSPQLLVYTAKTLADGVPSRFSGSGSGTQYSLKINSLQPEDFGTYYCQHFWSNPWTFGGGTKLEIKRADAAPTVSIFPPSSEQLTSGGASVVCFLNNFYPKDINVKWKIDGSERQNGVLNSWTDQDSKDSTYSMSSTLTLTKDEYERHNSYTCEATHKTSTSPIVKSFNRNEC |  |  | binds | binds
